“And” between values parts separate entries of the source, which are not always exact repeats. Identical values can stand only once. Where only a bound is given, the exact number is not on record here.

This note sets out measurements from article PMC6168691, “The amino‐terminal domain of Mycobacterium tuberculosis ClpB protein plays a crucial role in its substrate disaggregation activity” (FEBS Open Bio, 2018).

The target in one test is FITC-labelled casein. Briefly: fluorescence polarisation. Background: In fluorescence polarisation assays a small probe gives low polarisation when free and higher when bound to something large.
The target of test [1] is Mycobacterium tuberculosis DnaK (Mycobacterium tuberculosis) (UniProt P9WMJ9).
For test [2], the target named is recombinant firefly luciferase (firefly) [luciferase: P08659].
The target in test [3] is KJE chaperone complex (DnaK, DnaJ1, GrpE of Mycobacterium tuberculosis) (Mycobacterium tuberculosis | Mycobacterium tuberculosis H37Rv) (UniProt P9WMJ9).
Test [4] concerns the target malate dehydrogenase from pig heart (pig) (UniProt P00346).
For test [5] the target is unchanged. This is another data set of the same source.
Test [6] addresses recombinant firefly luciferase (firefly) [luciferase: P08659]. This is another data set of the same source.
Test [7] concerns the target N-terminally truncated Mycobacterium tuberculosis ClpB (ClpB∆N, residues 149–848) (Mycobacterium tuberculosis H37Rv) (UniProt P9WPD1). Briefly: SEC; Superdex-200 (1 × 60 cm), buffer A; protein loaded at 6 mg/mL, no nucleotide. In general terms: In gel filtration, larger molecules generally elute earlier.
Test [8] shares this target. Briefly: SEC; Superdex-200, buffer A; protein 0.2 mg/mL incubated with 5 mM ATP for 10 min at room temperature before loading.
Test [9] has the same target. Briefly: SEC; Superdex-200 (1 × 60 cm), buffer A (50 mM Tris/HCl pH 7.5, 100 mM KCl, 10% glycerol, 1 mM EDTA, 1 mM DTT); protein loaded at 0.2 mg/mL, no nucleotide.
Test [10] concerns the target T1, Mycobacterium tuberculosis ClpB, full length (residues 1–848) (Mycobacterium tuberculosis H37Rv, UniProt P9WPD1 1-848).
T1 construct: also called Mtb ClpB; WT ClpB
Briefly: fluorescence polarisation. Conditions: both partners purified.

Test [11] has as its target T1, Mycobacterium tuberculosis ClpB, full …. The test can be described thus: fluorescence polarisation. Conditions: both partners purified. The source holds these as a separate data set.

Sequence of malate dehydrogenase from pig heart (pig) (P00346 25-338): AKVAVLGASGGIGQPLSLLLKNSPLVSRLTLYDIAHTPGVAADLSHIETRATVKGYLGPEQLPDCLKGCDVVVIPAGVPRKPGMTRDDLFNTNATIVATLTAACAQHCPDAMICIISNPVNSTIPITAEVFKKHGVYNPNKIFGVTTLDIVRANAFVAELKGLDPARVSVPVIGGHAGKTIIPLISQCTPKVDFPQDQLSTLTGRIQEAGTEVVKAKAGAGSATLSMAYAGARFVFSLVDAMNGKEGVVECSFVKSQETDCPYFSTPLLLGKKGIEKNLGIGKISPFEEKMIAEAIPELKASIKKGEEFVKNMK
Sequence of recombinant firefly luciferase (firefly) [luciferase: P08659] (P08659 whole entry, the tested form may be a part): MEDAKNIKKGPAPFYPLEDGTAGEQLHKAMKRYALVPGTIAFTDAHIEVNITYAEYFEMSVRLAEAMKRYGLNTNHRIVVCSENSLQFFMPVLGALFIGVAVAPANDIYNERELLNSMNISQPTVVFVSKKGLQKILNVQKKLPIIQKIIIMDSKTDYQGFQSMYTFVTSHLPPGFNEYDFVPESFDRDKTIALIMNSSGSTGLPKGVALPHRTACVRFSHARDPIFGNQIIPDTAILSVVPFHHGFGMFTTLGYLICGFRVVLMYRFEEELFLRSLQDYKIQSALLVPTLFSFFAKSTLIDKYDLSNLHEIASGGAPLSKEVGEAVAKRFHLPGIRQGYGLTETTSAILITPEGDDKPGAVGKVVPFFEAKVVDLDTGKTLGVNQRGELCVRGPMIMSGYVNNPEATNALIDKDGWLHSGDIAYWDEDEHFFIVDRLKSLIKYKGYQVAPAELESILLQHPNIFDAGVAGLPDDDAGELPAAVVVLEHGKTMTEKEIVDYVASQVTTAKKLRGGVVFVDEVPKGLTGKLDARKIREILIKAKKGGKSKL

For orientation: Kd means the free concentration of one partner at which half of the binding sites on the other are occupied at equilibrium, for simple one-to-one binding. Low values mean tighter binding, high ones weaker binding. “Mycobacterium tuberculosis ClpB F140T (from UniProt P9WPD1 1-848) (natural protein)” came in with a dissociation constant (Kd) in the test with FITC-labelled casein of 24 µM.

In the test with FITC-labelled casein, “Mycobacterium tuberculosis ClpB L97D (from UniProt P9WPD1 1-848) (natural protein)” had an equilibrium dissociation constant (Kd) of 10 µM.

In the test with FITC-labelled casein, “Mycobacterium tuberculosis ClpB L101Q (from UniProt P9WPD1 1-848) (natural protein)” registered a Kd of 5.3 µM.

Regarding “Mycobacterium tuberculosis ClpB V141K (from UniProt P9WPD1 1-848) (natural protein)”, in the test with FITC-labelled casein, the dissociation constant Kd amounted to 10 µM.

As a reminder, the stoichiometry N is a count of units in the complex or per binding partner. “N-terminally truncated Mycobacterium tuberculosis ClpB (ClpB∆N, residues 149–848) (from UniProt P9WPD1 149-848) (domain or fragment)”: in test [1], the ATPase activity of ClpB∆N left at 1 mM ADP (5 mM ATP) with 1 μM DnaK worked out at 17%. For the same molecule, the prevention of heat aggregation of luciferase by the highest concentration of ClpB∆N in the absence of ATP in test [2] amounted to 24%. This molecule gave a reactivation of small aggregates of MDH by 1 μM ClpB∆N with 1 μM KJE complex (about 25% by ClpB∆N alone, 3.6% by KJE alone) in test [3] of 32%. For the same molecule, in test [4], the reactivation of small aggregates of MDH by 1 μM ClpB∆N alone, percent of native MDH activity stood at 25%. In test [5], this molecule registered a drop of reactivation activity of ClpB∆N alone on large against small aggregates of MDH of 80%. The molecule also registered a drop of reactivation activity of ClpB∆N with KJE on large against small aggregates of MDH in test [5] of 48%. In addition, the reactivation of large aggregates of luciferase by ClpB∆N against ClpB, alone and with KJE (luminescence) in test [6] was greater than 20%. This molecule also yielded a Kd in the test with FITC-labelled casein of 6.94 µM. The stoichiometry N in test [7] was 6 and 4; in test [8] it was 6; in test [9], 6 and 2.

B1: FITC-labelled casein (natural protein)
chain: RPKHPIKHQGLPQEVLNENLLRFFVAPFPEVFGKEKVNELSKDIGSESTEDQAMEDIKQMEAESISSSEEIVPNSVEQKHIQKEDVPSERYLGYLEQLLRLKKYKVPQLEIVPNSAEERLHSMKEGIHAQQKEPMIGVNQELAYFYPELFRQFYQLDAYPSGAWYYVPLGTQYTDAPSFSDIPNPIGSENSEKTTMPLW
modifications: FITC label
With B1, the dissociation constant (Kd) in test [10] came out at 0.88 ± 0.47 µM; in test [11], 0.9 µM.
